Laboratory results taken from US20160058829A1, “ANTI-FIBROTIC PEPTIDES AND THEIR USE IN METHODS FOR TREATING DISEASES AND DISORDERS CHARACTERIZED BY FIBROSIS” (Thrasos Innovation, Inc., priority 2011, published 2016).
“Also recorded” adds a separate entry of the source. Positions of bridges follow the written chain, without caps; N, C: chain ends.

T1: BMPR-II (Homo sapiens, UniProt Q13873)
T1 sequence (Q13873 27-1038): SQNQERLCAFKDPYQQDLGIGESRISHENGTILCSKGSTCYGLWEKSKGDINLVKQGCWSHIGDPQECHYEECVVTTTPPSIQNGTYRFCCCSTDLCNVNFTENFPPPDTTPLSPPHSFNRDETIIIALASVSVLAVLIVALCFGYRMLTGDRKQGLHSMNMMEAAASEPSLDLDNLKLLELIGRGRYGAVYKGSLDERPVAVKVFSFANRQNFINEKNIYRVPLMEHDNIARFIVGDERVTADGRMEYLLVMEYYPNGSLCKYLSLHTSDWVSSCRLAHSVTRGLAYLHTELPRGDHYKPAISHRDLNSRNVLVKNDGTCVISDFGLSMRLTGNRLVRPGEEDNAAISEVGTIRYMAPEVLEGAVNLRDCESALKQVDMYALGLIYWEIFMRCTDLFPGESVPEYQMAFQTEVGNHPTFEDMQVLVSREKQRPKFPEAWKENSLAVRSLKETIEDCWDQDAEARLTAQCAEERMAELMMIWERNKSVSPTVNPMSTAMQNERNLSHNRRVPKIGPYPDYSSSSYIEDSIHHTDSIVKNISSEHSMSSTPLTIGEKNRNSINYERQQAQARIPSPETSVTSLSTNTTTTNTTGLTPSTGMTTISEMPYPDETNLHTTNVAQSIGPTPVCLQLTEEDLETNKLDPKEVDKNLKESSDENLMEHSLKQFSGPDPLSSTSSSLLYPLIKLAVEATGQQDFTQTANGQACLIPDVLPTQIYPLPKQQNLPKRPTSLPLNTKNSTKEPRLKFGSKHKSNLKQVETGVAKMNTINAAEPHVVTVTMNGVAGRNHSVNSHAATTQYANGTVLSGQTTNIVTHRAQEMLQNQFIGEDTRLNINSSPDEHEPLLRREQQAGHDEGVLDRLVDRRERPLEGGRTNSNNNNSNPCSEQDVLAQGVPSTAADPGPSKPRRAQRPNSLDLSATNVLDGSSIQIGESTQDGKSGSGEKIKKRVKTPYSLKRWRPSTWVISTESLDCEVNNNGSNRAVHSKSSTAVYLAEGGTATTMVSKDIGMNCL


Columns and labels:
BMPR-II = molecular target: T1, BMPR-II; assay: BMP type II receptor binding
Source text: FIG. 31 provides a table indicating a comparison between THR-123 (SEQ ID NO: 1) and BMP-7 for binding to Type I and Type II BMP receptors. Like BMP-7, THR-123 binds to both ALK2 and ALK3 (type I) and BMPR-II (type II) BMP receptors. However, BMP-7, but not THR-123 binds to ALK6 (type I) receptor.

NP-1 cells = assay: Hypoxia-induced apoptosis in NP-1 cells (Annexin V); assay type: cell-based; settings: 2.5% O2 24 h; BMP-7 1 μg/ml, THR-123 10 μM
Protocol: FIG. 49A-FIG. 49D THR-123 inhibits Hypoxia-induced apoptosis in NP-1 cells. NP-1 cells are incubated with hypoxia (2.5% O2) for 24 h in the presence of indicated molecules. Apoptosis was analyzed by Annexin V labeling (Roche). Representative merged picture (Green: Annexin V and bright field image) of cells treated with hypoxia only (FIG. 49A), hypoxia+BMP-7 (1 μg/ml) FIG. 49(B), hypoxia+THR-123 (10 μM) (FIG. 49C) and hypoxia+ctrl peptide (FIG. 49D).

[1] = test system: mice with unilateral ureteral obstruction (UUO); assay: Unilateral ureteral obstruction (UUO) in mice; assay type: in vivo; settings: for kidney histology (H&E), day 7 UUO: BMP7 i.p., THR-123 i.p. or orally; for interstitial volume / fibrosis, day 7 UUO: BMP-7 300 μg/Kg every other day i.p., THR-123 5 mg/Kg/day i.p. or oral
Protocol: FIG. 56A-FIG. 56J The effect of THR-123 on mice with unilateral ureteral obstruction (UUO) mice. At the day of UUO, BMP-7 (300 μg/Kg/every other day, intraperitoneal administration) or THR-123 (5 mg/Kg/day, oral or intraperitoneal administration) are initiated. FIG. 56A-FIG. 56D: Masson's trichrome staining of normal kidney, day 5 UUO kidney. FIG. 56A. normal kidney section. […] FIG. 56C, FIG. 56D. […] FIG. 56E. Morphometric analysis for relative interstitial volume. Interstitial volume was calculated by the point counting method. FIG. 56F-FIG. 56I. Masson's trichrome staining of normal kidney, day 7 UUO kidney. […] FIG. 56I. Morphometric analysis for relative interstitial volume. Interstitial volume was calculated by the point counting method. […] Normal mice (n=4), day 5 UUO without treatment (n=4), day 5 UUO-treated with 5 mg/kg THR-123 (n=4), day 5 UUO-treated with 15 mg/kg THR-123 (n=4), day 7 UUO-treated with PBS (n=8), -treated with BMP (n=8) and -treated with THR-123 (n=7 in both i.p. and oral). Data are shown as mean±s.e.m. in the graph (FIG. 56J).
FIG. 57A-FIG. 57H The effect of THR-123 on mice with unilateral ureteral obstruction (UUO) mice (H&E staining). On the day UUO was performed, treatments of BMP7 (300 μg/Kg/every other day, intraperitoneal administration) or THR-123 (5 mg/Kg/day, oral or intraperitoneal administration) are initiated. FIG. 57A. Normal kidney section. FIG. 57B. Day 5 UUO mice FIG. 57C, FIG. 57D. Kidney of UUO mice treated with THR-123 orally at 5 mg/kg (FIG. 57C) or 15 mg/kg (FIG. 57D) E-H. Day 7 UUO kidney histology. […] Normal mice (n=4), day 5 UUO without treatment (n=4), day 5 UUO-treated with 5 mg/kg THR-123 (n=4), day 5 UUO-treated with 15 mg/kg THR-123 (n=4), day 7 UUO-treated with PBS (n=8), -treated with BMP (n=8) and -treated with THR-123 (n=7 in both i.p. and oral).
FIG. 58 Gene expression analysis for the fibrosis markers in mice with UUO. Quantitative RT-PCR analysis for fibronectin-EIII and collagen type-I in normal kidney and day 7 UUO kidney with or without indicated treatment.
Mice are anesthetized with the mixture of ketamine and xylazine. Prepare the ureter from the surrounding tissues and place two ligatures about 5 mm apart in upper two-thirds of the ureter of the left kidney to obtain reliable obstruction. At same day after surgery, mice were initiated treatment with BMP7 (300 μg i.p./Kg/every other day), THR-123 (p.o. 5 mg or 15 mg/Kg/day, i.p. 5 mg/Kg/day) or PBS (i.p.) as control. Mice are sacrificed at day 5 or 7 after operation.

Molecule | binding to BMPR-II (BMPR-II) | hypoxia-induced apoptosis (NP-1 cells) | kidney histology (H&E), day 7 UUO [1] | interstitial volume / fibrosis, day 7 UUO ([1]; 5 mg/kg/day) | interstitial volume expansion, day 5 UUO ([1]; THR-123 oral 5 mg/Kg or 15 mg/Kg) | kidney histology, day 5 UUO ([1]; THR-123 orally 5 mg/kg or 15 mg/kg) | expression of fibronectin and type I collagen, day 7 UUO ([1]; quantitative RT-PCR) | interstitial volume / fibrosis, day 7 UUO [1] | interstitial volume / fibrosis, day 7 UUO ([1]; listed as BMP7)
(H)-CYFDDSSNVLCKKYRS-(OH) (H-CYFDDSSNVLCKKYRS-OH; disulfide 1-11; SMILES CC(C)C[C@@H]1NC(=O)[C@H](C(C)C)NC(=O)[C@H](CC(N)=O)NC(=O)[C@H](CO)NC(=O)[C@H](CO)NC(=O)[C@H](CC(=O)O)NC(=O)[C@H](CC(=O)O)NC(=O)[C@H](Cc2ccccc2)NC(=O)[C@H](Cc2ccc(O)cc2)NC(=O)[C@@H](N)CSSC[C@@H](C(=O)N[C@@H](CCCCN)C(=O)N[C@@H](CCCCN)C(=O)N[C@@H](Cc2ccc(O)cc2)C(=O)N[C@@H](CCCNC(=N)N)C(=O)N[C@@H](CO)C(=O)O)NC1=O) [SEQ ID NO: 1] | binds | decreased apoptosis | preserved tubules | inhibited fibrosis; also recorded: less kidney interstitial volume | inhibited interstitial volume expansion | less tubular atrophy, tubular dilatation and interstitial inflammation | decreased expression of matrix components such as fibronectin and type I collagen | – | –
BMP-7: bone morphogenetic protein-7; recombinant human BMP7, positive control (protein) STGSKQRSQNRSKTPKNQEALRMANVAENSSSDQRQACKKHELYVSFRDLGWQDWIIAPEGYAAYYCEGECAFPLNSYMNATNHAIVQTLVHFINPETVPKPCCAPTQLNAISVLYFDDSSNVILKKYRNMVVRACGCH | binds | decreased apoptosis | preserved tubules | – | – | – | – | ameliorated interstitial volume expansion | less kidney interstitial volume
